Measurements as given in patent EP1657250A1, “HLA-A *01-binding T-cell epitope of WT1” (Charité - Universitätsmedizin Berlin, priority 2004, dated 2006).
“Also recorded” adds a separate entry of the source.

Experiments:
[1] = molecular target: T1, constitutive proteasome (Homo sapiens, UniProt P28072+P28074+Q99436); experiment: In vitro proteasome digestion of the precursor peptide, constitutive proteasome; assay type: biochemical; settings: 6 h incubation; Edman sequencing and MALDI-TOF
T1 construct: Proteasomes were isolated from the EBV-transformed B-cell line; endogenous in cells; host or cells: LCL-721.174 (EBV-transformed B-cell line)
Description: (§1) Purification of 20S proteasomes, in vitro degradation of WT1.314-336 (SEQ ID NO: 6), and separation and analysis of cleavage products were performed as described (16). 10 nmol (27.6 µg) of WT1.314-336 were incubated for 6 h with 2 µg immunoproteasome or with 2 µg of constitutive proteasome, respectively, in digestion buffer (20 mM Tris-HCI; pH 7.6; 10 mM NaCl; 10 mM KCI; 2 mM MgCl2; 0.5 mM DTT) and the reaction stopped by freezing the reaction mixture at -80°C.
(§2) One crucial prerequisite for a peptide to be presented as a T-cell epitope is its proper excision from the protein. We analyzed in vitro digestion of the […] WT1-derived peptide 314-336 (SEQ ID NO: 6) encompassing the WT1.317-327 epitope […] (SEQ ID NO: 1) by constitutive as well as immunoproteasomes (Fig. 2). Proteasomes were isolated from the EBV-transformed B-cell line LCL-721.174 (constitutive proteasome) and the parental cell line LCL-721 (immunoproteasome, ref. 16) and were used for digestion with a 6-hour incubation period. A combination of Edman sequencing and MALDI-TOF mass spectrometry was subsequently performed to determine the identity and quantity of peptides generated after proteasome digestion. The amount of fragments detected is indicated.

[2] = molecular target: T2, immunoproteasome (Homo sapiens, UniProt P28062+P28065+P40306); experiment: In vitro proteasome digestion of the precursor peptide, immunoproteasome; assay type: biochemical; settings: 6 h incubation; Edman sequencing and MALDI-TOF
T2 construct: Proteasomes were isolated from the EBV-transformed B-cell line; endogenous in cells; host or cells: LCL-721 (EBV-transformed B-cell line)
Description: as §1, §2

Substance: WT1.314-336: WT1-derived precursor peptide 314-336 encompassing the WT1.317-327 epitope (ASETSEKRPFMCAYPGCNKRYFK)
- cleavage site C-terminal to Tyr-327 (fragments detected) [1]: fragment 328-336 was efficiently generated
- processing of the N-terminus Thr-317 [1]: a fragment was found sharing the N-terminus Thr-317 (T)
- generation of C-terminal residue Tyr-327 (fragments detected) [2]: generated as the major fragment (314-327); also recorded: complementary fragment 328-336 represented the other major fragment
- processing of the N-terminus [2]: No processing of the N-terminus was observed
